Results published in PMC12631878, “Single‐Cell Transcriptome Analysis Reveals That Hmga2 Regulates Neuroinflammation and Retinal Function by Modulating Müller Cell Autophagy Through PI3K/AKT Signaling Following MCAO‐Induced Retinal Ischemia” (Advanced Science, 2025).

Biological target: PI3K (protein used in biolayer interferometry) (UniProt P26450 1-724)
Assay: BLI; biolayer interferometry; format and conditions not told in the main text (Figure S4)

Chain of PI3K (protein used in biolayer interferometry) (P26450 2-724): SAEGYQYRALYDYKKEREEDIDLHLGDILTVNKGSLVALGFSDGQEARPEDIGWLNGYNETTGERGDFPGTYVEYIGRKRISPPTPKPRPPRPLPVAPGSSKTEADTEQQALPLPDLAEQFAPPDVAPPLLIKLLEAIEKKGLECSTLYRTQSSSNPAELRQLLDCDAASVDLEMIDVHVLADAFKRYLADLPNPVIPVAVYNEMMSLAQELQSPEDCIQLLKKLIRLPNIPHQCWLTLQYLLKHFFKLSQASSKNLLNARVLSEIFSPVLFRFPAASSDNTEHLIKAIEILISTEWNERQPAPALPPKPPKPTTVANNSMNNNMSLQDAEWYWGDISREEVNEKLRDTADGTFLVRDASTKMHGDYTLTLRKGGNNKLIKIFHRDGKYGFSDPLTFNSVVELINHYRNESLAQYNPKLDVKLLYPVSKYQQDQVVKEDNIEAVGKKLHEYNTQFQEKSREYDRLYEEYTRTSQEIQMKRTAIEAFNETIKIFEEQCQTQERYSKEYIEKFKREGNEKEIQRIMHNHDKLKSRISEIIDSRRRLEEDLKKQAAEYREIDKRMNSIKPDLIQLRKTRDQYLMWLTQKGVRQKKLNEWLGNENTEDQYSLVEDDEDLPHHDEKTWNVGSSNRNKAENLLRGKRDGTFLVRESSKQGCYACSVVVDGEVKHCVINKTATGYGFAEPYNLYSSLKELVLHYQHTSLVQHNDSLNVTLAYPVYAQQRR

B1: Hmga2 (protein used in biolayer interferometry) (natural protein, UniProt P52927 1-108, looked up)
chain: MSARGEGAGQPSTSAQGQPAAPVPQKRGRGRPRKQQQEPTCEPSPKRPRGRPKGSKNKSPSKAAQKKAETIGEKRPRGRPRKWPQQVVQKKPAQETEETSSQESAEED
notes: Hmga2 as used in the biolayer interferometry assay; The main text has no methods for the BLI experiment
Q: How did the Kd turn out when B1 was run?
A: Its Kd is 12 nM.
